From patent publication US8703698B2, “Compositions and methods for treating atherosclerosis” (The University of Chicago, priority 2003, dated 2014)

Experiments:
[1] = system: cholesterol ester hydrolase; experiment: Rate of hydrolysis of cholesteryl ester in cholesterol-laden J774 cells (cholesterol ester hydrolase activity); format: cell-based, murine; conditions: lipoproteins or protein liposomes; tissue culture
Description: Identification of the domain of SAA2.1 that is responsible for enhancing cholesterol ester hydrolase activity was performed in J774 cells preloaded with radio-labeled cholesteryl esters. These experiments were performed in the presence of Sandoz 58-035, an inhibitor of acyl CoA:cholesterol acyl transferase activity, to prevent re-esterification of liberated cholesterol and [^14C]oleate. Incubations proceeded for times ranging from 0 to 24 hours, following which the remaining quantities of [^14C]-labeled cholesteryl oleate in cells were measured to determine the rate of hydrolysis of cholesteryl ester. […] However, an equivalent amount of liposomes containing the synthetic peptide corresponding to amino acid residues 74-103 of murine SAA2.1 caused a 3-fold increase in cholesterol ester hydrolase activity in these cholesterol-laden murine cells. Newly confluent J774 cells were labeled with [^14C]-oleate during cholesterol loading with red blood cell membranes as described above. Cells were then incubated for up to 24 hours with 2 mL of DMEM containing 5% LPDS and 50 μg/mL of either native HDL, SAA-HDL, liposomes containing 2 μmoles of apoA-1, SAA1.1 or 2.1, or liposomes containing 0.5:mol synthetic peptides corresponding to amino acid residues 1-20 (SEQ ID NO:1), 21-50 (SEQ ID NO:2), 51-80 (SEQ ID NO:3) and 74-103 (SEQ ID NO:4) of murine SAA2.1. To determine the rate of cholesteryl ester hydrolysis, 2 μg/mL of the acyl CoA:cholesterol acyl transferase inhibitor Sandoz 58-035 (propanimide, 3-(decyldimethylsilyl)-N-[2-(4-methylphenyl)-1-phenylethyl]-(9Cl) was added during incubation with lipoproteins or liposomes to prevent […] and free cholesterol. To examine whether or not the rate of cholesteryl ester hydrolysis involved the lysosomal cholesteryl ester hydrolase, the cells were cultured in the presence of 50 μg/mL of either native HDL and chloroquine or SAA-HDL and chloroquine (100:M). Chloroquine is an agent that neutralizes the lysosomal proton gradient. At various time points, cellular lipids were extracted and analyzed for cholesteryl ester radioactivity as described above.

[2] = molecular target: T1, acyl CoA:cholesterol acyl transferase (Mus musculus, UniProt Q61263); experiment: Incorporation of [14C]oleate into cholesteryl ester in cholesterol-laden macrophages (ACAT activity); format: cell-based, murine; conditions: lipoproteins or protein liposomes; tissue culture
T1 construct: host or cells: J774 mouse macrophages, cholesterol-loaded
T1 sequence (Q61263 1-540): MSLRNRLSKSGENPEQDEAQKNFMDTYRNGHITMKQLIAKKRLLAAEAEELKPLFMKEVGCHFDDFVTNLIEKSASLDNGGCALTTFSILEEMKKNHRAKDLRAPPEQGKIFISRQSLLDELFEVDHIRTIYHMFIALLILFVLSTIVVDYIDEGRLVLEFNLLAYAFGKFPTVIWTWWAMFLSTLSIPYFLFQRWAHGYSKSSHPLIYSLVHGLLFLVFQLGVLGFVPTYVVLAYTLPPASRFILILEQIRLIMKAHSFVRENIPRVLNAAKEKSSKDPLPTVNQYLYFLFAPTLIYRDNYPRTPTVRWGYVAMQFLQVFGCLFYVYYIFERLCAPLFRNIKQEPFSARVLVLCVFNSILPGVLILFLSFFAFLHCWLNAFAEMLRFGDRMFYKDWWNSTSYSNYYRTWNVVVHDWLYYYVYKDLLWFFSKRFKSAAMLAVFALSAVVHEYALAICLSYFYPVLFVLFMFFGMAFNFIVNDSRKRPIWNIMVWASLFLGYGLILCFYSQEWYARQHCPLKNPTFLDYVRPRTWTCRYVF
Description: The incorporation of [^14C]oleate into cholesteryl ester was used as a measure of acyl CoA:cholesterol acyl transferase activity to identify compositions inhibiting the enzyme activity. The relative acyl CoA:cholesterol acyl transferase activity was determined in cholesterol-laden murine cells that had been cultured in medium in the absence of liposomes or in the presence of protein-free liposomes or liposomes containing 0.5 μM synthetic peptides corresponding to amino acids 1-20, 21-50, 51-80 and 74-103 of murine SAA2.1.
To load the cells with cholesterol, nearly confluent mono-layers were washed 3 times with phosphate buffered saline containing 2 mg/mL fatty acid-free bovine serum albumin (PBS-BSA) and incubated for 5 hours in DMEM supplemented with 5% lipoprotein-depleted serum (LPDS) (d>1.25 g/mL) and 175 μg of red blood cell membrane cholesterol. For the purpose of pool equilibration of added cholesterol, cell cultures were rinsed twice with PBS-BSA and incubated overnight in DMEM containing 5% LPDS. The relative activity of acyl CoA:cholesterol acyl transferase was determined in cholesterol-laden cells that had been cultured in medium containing no liposomes, protein-free liposomes or liposomes containing 0.5:M synthetic peptides corresponding to amino acid residues 1-20 (SEQ ID NO:1), 21-50 (SEQ ID NO:2), 51-80 (SEQ ID NO:3) or 74-103 (SEQ ID NO:4) of murine SAA2.1, respectively. Following 3 hours incubation with the above media, [^14C]-oleate was added and the cells were incubated for another 3 hour period (Mendez et al. J. Clin. Invest. 1994 94:1698-1705; Oram et al. Arterioscler. Thromb. 1991 11:403-414). Cells were chilled on ice and washed twice with PBS-BSA and twice with PBS. After addition of [^3H]-cholesteryl oleate (6000 dpm/well) as an internal standard, the lipids were extracted from the labeled cells and analyzed by thin-layer chromatography as described by Mendez et al. (J. Clin. Invest. 1994 94:1698-1705) and Oram et al. (Arterioscler. Thromb. 1991 11:403-414). The radioactivity in appropriate spots was measured to determine the incorporation of radioactivity into cholesteryl esters as a measure of acyl CoA:cholesterol acyl transferase activity.

J774 macrophages [3] = experiment: Cholesterol efflux from cholesterol-laden J774 macrophages to apolipoprotein liposomes with 8-bromo-cAMP or methyl-β-cyclodextrin; format: cell-based, mouse
Excerpt: The export process of cholesterol is coupled to the ATP binding cassette transporter (ABCA1) pathway. Lipid efflux to apolipoproteins has been shown previously to be stimulated by treatment of murine macrophages with cAMP analogues (Lin et al. 2002 Biochem Biophys Res. Commun. 290:663-669; Oram et al. 2000 J. Biol. Chem. 275:34508-34511). Also, the expression of ABCA1 is induced by cAMP treatment (Lin et al. 2002 Biochem Biophys Res. Commun. 290:663-669; Oram et al. 2000 J. Biol. Chem. 275:34508-34511). The inventors herein examined the effect of 8-bromo-cAMP (0.3 mM) on cholesterol efflux by liposomes containing various apolipoproteins when incubated with cholesterol-laden J774 macrophages. Such cells were pre-labeled with [^3H]-cholesterol in the presence of Sandoz 58-035, an ACAT inhibitor, to ensure that all of the radiolabeled cholesterol released from the cells was derived from the un-esterified cholesterol pool, and the cells were treated for 12 hours with 8-bromo-cAMP. This was followed by incubation with various acceptors. The fractional release of cellular labeled cholesterol was determined as a function of time.
To investigate whether an apolipoprotein free cholesterol acceptor such as cyclodextrin has the ability to catalyze the removal of cholesterol from macrophages, cholesterol-loaded and labeled J774 cells were incubated with liposomes and methyl-β-cyclodextrin (0.1 mM) (CD).
To examine whether cholesterol export from J774 cells to medium containing liposomes containing 2 μM murine apoA-1, SAA1.1 or SAA2.1 is a cAMP-dependent process, the radio-labeled cholesterol-laden cells were incubated overnight with 8-Br-cAMP (0.3 mM), prior to the addition of liposomes containing 2 μM murine apoA-1, SAA1.1 or SAA2.1 to the culture medium. Cholesterol efflux to the medium was then determined at the indicated time points as described above. Efflux of radioactive label to the medium was calculated as a percentage of total counts in each well.

[4] = molecular target: T1, acyl CoA:cholesterol acyl transferase; experiment: ACAT activity in macrophage post-nuclear homogenates; format: biochemical, murine; conditions: macrophage post-nuclear homogenates as enzyme source
Excerpt: The in vitro effects of acute phase-HDL (AP-HDL;HDL-SAA) on acyl CoA:cholesterol acyl transferase and cholesterol ester hydrolase activities and on cellular cholesterol export were studied by the inventors using purified enzymes, cell homogenates, and whole cells. […] In contrast, murine SAA1.1 and apoA-1 had no effect. […] Using macrophages preloaded with radio-labeled cholesterol and injected intravenously into either inflamed or un-inflamed mice, it was shown that the inflamed mice, which have high SAA2.1 levels, effluxed cholesterol more rapidly and to a greater extent (6-fold greater) than their un-inflamed counterparts.

J774 macrophages [5] = conditions: Tam et al. 2002; cited from earlier work

B1: GFFSFIGEAFQGAGDMWRAYTDMKEAGWKDGDKYFHARGNYDAAQRGPGGVWAAEKISD ARESFQEFFGRGHEDTMADQEANRHGRSGKDPNYYRPPGLPAKY (protein, listed as Mus musculis)
chain: GFFSFIGEAFQGAGDMWRAYTDMKEAGWKDGDKYFHARGNYDAAQRGPGGVWAAEKISDARESFQEFFGRGHEDTMADQEANRHGRSGKDPNYYRPPGLPAKY
notes: full length murine serum amyloid A isoform 1.1
cholesterol ester hydrolase activity in intact cholesterol-laden macrophages [1]: no effect on enzyme activities
acyl CoA:cholesterol acyl transferase activity in intact cholesterol-laden macrophages [2]: no effect on enzyme activities
stimulation of cholesterol efflux to liposomes with or without cAMP pre-treatment (J774 macrophages [3]; 8-bromo-cAMP 0.3 mM): No stimulation of efflux
increase in the initial rate of cholesterol efflux with CD treatment (J774 macrophages [3]; methyl-β-cyclodextrin 0.1 mM plus liposomes): not
acyl CoA:cholesterol acyl transferase activity [4]: had no effect
promotion of cholesterol efflux from cholesterol-laden macrophages compared to protein-free liposomes (J774 macrophages [5]): not any more effective than protein-free liposomes
